The values below come from patent publication US20190225652A1, “GENERATION OF PEPTIDES” (Hexima Limited, priority 2015, published 2019).

Data set [1] deals with rOaAEP1b, rOaAEP3, rOaAEP4 and rOaAEP5. Put plainly: Intermolecular ligation assay with recombinant AEPs. The class given is biochemical, Oldenlandia affinis. As to conditions: target 140 μM, enzymes 19.7 μg mL^−1, 6 h, MALDI-MS. The protocol: Target peptides (140 μM) were incubated with a ligation partner peptide (700 μM) and a recombinant AEP (rOaAEP1b, rOaAEP3, rOaAEP4 or rOaAEP5 at 19.7 μg mL^−1 total protein) in activity buffer (50 mM sodium acetate, 50 mM NaCl, 1 mM EDTA, 0.5 μM TCEP, pH 5). The reaction was allowed to proceed for up to 22 hours at room temperature and was analysed by MALDI MS or electrospray ionisation (ESI) mass spectrometry as appropriate.
(§1) Cyclization or inter-molecular ligation of linear target peptides was monitored by MALDI or ESI MS. In both cases, the reaction mixture (5-50 μL) was de-salted using C18 zip tips (Millipore) and eluted in 4 μL 50-75% v/v acetonitrile, 0.1% v/v trifluoroacetic acid (TFA).
(§2) For MALDI MS, a saturated MALDI matrix solution (α-cyano-4-hyroxycinnamic acid, CHCA, Bruker) prepared in 95% v/v acetonitrile, 0.1% v/v TFA was diluted 1:22 such that the final matrix solution comprised 90% v/v acetonitrile, 0.1% v/v TFA and 1 mM NH4H2PO4. Eluted samples were mixed 1:4 with the MALDI matrix, spotted onto a MALDI plate and analyzed by an Ultraflex III TOF/TOF (Bruker) in positive reflector mode. Data were analyzed using the flexAnalysis program (Bruker).
(§3) For ESI MS, 96 μl of 75% v/v acetonitrile, 01% v/v TFA was added to the de-salted sample. The sample was then injected into a MicroTOF Q (Bruker) and data was collected in positive ionisation mode. The mass of ligated or cyclized product was determined by charge deconvolution using the Compass DataAnalysis program (Bruker).
To investigate the ability of recombinantly produced AEPs to perform inter-molecular ligation (as well as the intra-molecular ligation required to produce backbone-cyclized peptides), target peptides were incubated with ligation partner peptides as well as active enzyme (FIG. 11). The appearance of new linear peptides were tracked. […]

Data set [2] has the same test system. Briefly: Cyclization assay with rOaAEP1b, rOaAEP3, rOaAEP4 and rOaAEP5 (MALDI/ESI MS). The class given is biochemical, Oldenlandia affinis. Conditions: peptides with added AEP recognition residues, 280 μM, enzymes 19.7 μg mL^−1 total protein, MS. The protocol:
Linear target peptides (280 μM, unless otherwise indicated) were incubated with rOaAEP1b, rOaAEP3, rOaAEP4 or rOaAEP5 (total protein concentration as indicated in the description of figures) in activity buffer (50 mM sodium acetate, 50 mM NaCl, 1 mM ethylenediaminetetraacetic acid [EDTA], 0.5 μM Tris(2-carboxyethyl)phosphine hydrochloride [TCEP], pH 5). The reaction was allowed to proceed for up to 22 hours at room temperature and was analysed by matrix-assisted laser desorption/ionization mass spectrometry (MALDI MS), high performance liquid chromatography (HPLC) or nuclear magnetic resonance (NMR) as appropriate.
as §1, §2, §3
The ability of activated AEPs (rOaAEP1b, rOaAEP3, rOaAEP4 and rOaAEP5) to cyclize peptide substrates structurally unrelated to cyclotides was tested in the cyclization assay described in the Materials and Methods. The anti-malarial peptide R1 (Harris et al. (2009) J Biol Chem 284(14):9361-9371; Harris et al. (2005) Infect Immun 73(10):6981-6989); Bac2A, a linear derivative of the bovine peptide bactenecin (Wu and Hancock (1999) Antimicrob Agents Ch 43:1274-1276); and the anti-fungal peptide EcAMP1 (Nolde et al. (2011) J Biol Chem 286(28):25145-25153) were produced with additional AEP recognition residues and used as the substrates.
To investigate the sequence requirements for in vitro cyclization, R1 was used as a model peptide. The recognition residues added to this model peptide were sequentially trimmed to determine the minimal requirements for AEP-mediated cyclization. The N- and C-terminal recognition residues were also substituted with alternate amino acids to determine if particular classes of residues were preferred for cyclization by these recombinant AEPs. The ability of activated AEPs (rOaAEP1b, rOaAEP3, rOaAEP4 and rOaAEP5) to cyclize the R1 peptide with varied flanking sequences was then tested in the cyclization assay described in the Materials and Methods (FIG. 10; Table 3).

Data set [3] concerns rOaAEP1b. Briefly: Inhibition assay: rOaAEP1b activity against wt IQF peptide. The class given is biochemical, Oldenlandia affinis. As to conditions: 40 minutes preincubation, rOaAEP1b 4.4 μg mL^−1, IQF peptide 11 μM, 90 minutes. The protocol: FIG. 16 is a graphical representation of rOaAEP1b activity against the IQF peptide Abz-STRNGLPS-Y(3NO2) [SEQ ID NO:21] in the presence of protease inhibitors. rOaAEP1b (4.4 μg mL^−1 total protein) was allowed to cleave the IQF peptide (11 μM) for 90 minutes. Enzyme activity against the IQF peptide in the presence of either the Ac-YVAD-CHO or Ac-STRN-CHO inhibitors is reported relative to a no inhibitor control at the 90 minutes time point.
To assay activity of recombinant AEPs (rOaAEP1b, rOaAEP3, rOaAEP4 or rOaAEP5) against both internally-quenched and other fluorescent peptides, substrate and enzyme were diluted as appropriate in activity buffer (50 mM sodium acetate, 50 mM NaCl, 1 mM EDTA, 0.5 μM TCEP, pH 5). […] The change in fluorescence intensity over time was monitored on a SpectraMax M2 (Molecular Devices) using excitation/emission wavelengths of 320/420 nm (IQF peptides) or 360/460 nm (other fluorescent peptides).
To investigate the impact of inhibitors on enzyme activity against the wild type IQF peptide, Abz-STRNGLPS-Y(3NO2), rOaAEP1b (4.4 μg mL^−1 total protein) was incubated with Ac-YVAD-CHO (500 μM) or Ac-STRN-CHO (409 μM) for 40 minutes prior to addition to the substrate (11 μM). Enzyme activity against the wt IQF peptide was then assessed as described above.

For data set [4], the system named is rOaAEP1b. Put plainly: Kinetics of rOaAEP1b-mediated cyclisation of wt kB1 precursor (RP-HPLC, Michaelis-Menten). The class given is biochemical, Oldenlandia affinis. As to conditions: substrate 75-250 μM, room temperature, 5 min, enzyme 19.7 μg ml^−1 total protein, ±s.e.m. The protocol: FIG. 7 is a graphical representation showing the kinetics of rOaAEP1b-mediated cyclisation. Varying concentrations of substrate (kB1wt precursor) were incubated with enzyme (19.7 μg mL^−1 total protein) for 5 min. The amount of product formed was inferred by monitoring depletion of the precursor by RP-HPLC. […] The kinetic parameters derived from this plot are listed (±SEM).
To determine the kinetics of rOaAEP1b activity against the wt kB1 precursor (FIG. 1; SEQ ID NO: 11), the substrate was assayed at room temperature at a range of concentrations between 75 and 250 μM in a total volume of 20-160 μl of activity buffer. The total protein concentration of the enzyme preparation added to the kinetic assays was 19.7 μg ml^−1. The reaction was quenched after 5 min with 0.1% TFA and the volume adjusted to 800 μl. A volume of 700 μl was loaded onto a reversed-phase C18 analytical column (Agilent Eclipse C18, 5 μm, 4.6×150 mm) and peptides were separated by HPLC (19 min linear gradient of 12-60% acetonitrile, 0.1% TFA at 1 ml min^−1). The identity of eluted peaks was confirmed using MALDI MS. The area under the curve corresponding to the precursor peptide was quantitated by comparison to a standard curve and initial velocities were calculated by converting this to μmoles product formed. […]

Data set [5] concerns rOaAEP1b. Briefly: Cyclization assay with rOaAEP1b (MALDI MS). The class given is biochemical, Oldenlandia affinis. As to conditions: MALDI MS.
The target in data set [6] is T1, R1 peptide derivative GLVFAEFLPLFSKFGSRMHILKNG
T1 chain: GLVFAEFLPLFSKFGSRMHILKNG

Data set [7] has as its target T2, R1 peptide derivative VFAEFLPLFSKFGSRMHILKNGL
T2 chain: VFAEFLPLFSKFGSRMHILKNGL

Data set [8] has as its target T3, R1 peptide derivative GLVFAEFLPLFSKFGSRMHILKNGL
T3 chain: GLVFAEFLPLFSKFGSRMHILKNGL

The target in data set [9] is T4, synthetic linear kalata B1 precursor carrying the native C-terminal pro-hepta-peptide GLPSLAA (wt kB1 precursor).
T4 chain: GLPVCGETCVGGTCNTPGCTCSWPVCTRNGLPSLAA

The target of data set [10] is T5, R1 peptide derivative KLVFAEFLPLFSKFGSRMHILKNGL
T5 chain: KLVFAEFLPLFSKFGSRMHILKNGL

For data set [11], the target named is T6, R1 peptide derivative GLPVFAEFLPLFSKFGSRMHILKSTRNGLP
T6 chain: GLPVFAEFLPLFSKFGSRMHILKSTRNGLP

Data set [12] deals with T7, R1 peptide derivative QLVFAEFLPLFSKFGSRMHILKNGL
T7 chain: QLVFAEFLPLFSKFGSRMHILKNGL

As to “GLVFAEFLPLFSKFGSRMHILKGHV (R1) [SEQ ID NO:61, R1 peptide derivative]”, in data set [1] (ligation partner biotin-TRNGL 700 μM), the “inter-molecular ligation, N-terminal labelling” value is “created a new linear peptide that incorporated an N-terminal biotin”. In addition, the “cyclization of linear precursor peptide by recombinant AEPs” value in data set [2] is given as “not itself an AEP substrate”.
For “GKVFAEFLPLFSKFGSRMHILKNGL (Target peptide; R1) [SEQ ID NO:83, R1 peptide derivative]”, the “inter-molecular ligation, C-terminal labelling” value in data set [1] (ligation partner GLK-biotin 700 μM) is on record as “created a new linear peptide that incorporated a C-terminal biotin”. In addition, in [2], the “cyclization of linear precursor peptide by recombinant AEPs” value is reported as “poor substrate for backbone cyclization”.
As to Ac-YVAD-CHO, the “efficacy of inhibitor against rOaAEP1b” value with rOaAEP1b [3] (inhibitor 500 μM) is reported as “limited efficacy”.
In the case of Ac-STRN-aldehyde, in the data set on rOaAEP1b [3] (inhibitor 409 μM), the “efficacy of inhibitor against rOaAEP1b” value is reported as “limited efficacy”.
Consider “wt kB1 precursor: synthetic linear kalata B1 precursor carrying the native C-terminal pro-hepta-peptide (GLPSLAA) (GLPVCGETCVGGTCNTPGCTCSWPVCTRNGLPSLAA; kB1wt)”, for which the kcat in the data set with rOaAEP1b [4] (conservative estimate (32 kDa, total protein taken as active enzyme)) is listed as 0.53 (±0.1) s^−1. In addition, the Km in the data set on rOaAEP1b [4] was 212 µM. The “processing/cyclization by rOaAEP1b” value in the data set on rOaAEP1b [5] is “consistent with the expected mass of mature, cyclic kB1”.

B1: recombinant Oldenlandia affinis asparaginyl endopeptidase OaAEP1b, activated (rOaAEP1b) (protein)
chain: MVRYLAGAVLLLVVLSVAAAVSGARDGDYLHLPSEVSRFFRPQETNDDHGEDSVGTRWAVLIAGSKGYANYRHQAGVCHAYQILKRGGLKDENIVVFMYDDIAYNESNPRPGVIINSPHGSDVYAGVPKDYTGEEVNAKNFLAAILGNKSAITGGSGKVVDSGPNDHIFIYYTDHGAAGVIGMPSKPYLYADELNDALKKKHASGTYKSLVFYLEACESGSMFEGILPEDLNIYALTSTNTTESSWCYYCPAQENPPPPEYNVCLGDLFSVAWLEDSDVQNSWYETLNQQYHHVDKRISHASHATQYGNLKLGEEGLFVYMGSNPANDNYTSLDGNALTPSSIVVNQRDADLLHLWEKFRKAPEGSARKEVAQTQIFKAMSHRVHIDSSIKLIGKLLFGIEKCTEILNAVRPAGQPLVDDWACLRSLVGTFETHCGSLSEYGMRHTRTIANICNAGISEEQMAEAASQACASIP
Turning to B1, the Linear precursor (%) in [6] was found to be 100%; in data set [7], 27.7%; in data set [8], 7.1%; in data set [10], 17.8%; in data set [11], 21.2%; in data set [12], 6.9%. Also, the Cyclic product (%) came to 49.6% in data set [7]; 92.9% in [8]; 82.2% in data set [10]; 78.8% in [11]; 93.1% in [12]. This molecule came in with a Linear product (%) in data set [7] of 27.7%. Also, the Km in [9] is recorded as 212 (±76) µM for Km. The kcat in data set [9] is 0.53 (±0.1) s^-1 for kcat. For the same molecule, the kcat/Km in data set [9] is listed as 2,500 M^-1 s^-1 for kcat/Km.
